According to patent US20250152743A1, “SYNPOPTOSIS CIRCUITS FOR PROGRAMMABLE CELL DEATH CONTROL” (California Institute of Technology, priority 2023, published 2025):

Molecular target: Caspase-3-L-tev-S (Homo sapiens (Human)) (UniProt P42574)
Assay: cell-based or functional assay

membrane-bound TEVP (CAAX) (enzyme) showed a cell death of polytransfected HEK293 cells, Annexin V staining and flow cytometry of 40 % cell death.
